Data: CN114456267A

Biological target: T1, 重组人CD73蛋白 (human) (UniProt P21589)
T1 sequence (looked up): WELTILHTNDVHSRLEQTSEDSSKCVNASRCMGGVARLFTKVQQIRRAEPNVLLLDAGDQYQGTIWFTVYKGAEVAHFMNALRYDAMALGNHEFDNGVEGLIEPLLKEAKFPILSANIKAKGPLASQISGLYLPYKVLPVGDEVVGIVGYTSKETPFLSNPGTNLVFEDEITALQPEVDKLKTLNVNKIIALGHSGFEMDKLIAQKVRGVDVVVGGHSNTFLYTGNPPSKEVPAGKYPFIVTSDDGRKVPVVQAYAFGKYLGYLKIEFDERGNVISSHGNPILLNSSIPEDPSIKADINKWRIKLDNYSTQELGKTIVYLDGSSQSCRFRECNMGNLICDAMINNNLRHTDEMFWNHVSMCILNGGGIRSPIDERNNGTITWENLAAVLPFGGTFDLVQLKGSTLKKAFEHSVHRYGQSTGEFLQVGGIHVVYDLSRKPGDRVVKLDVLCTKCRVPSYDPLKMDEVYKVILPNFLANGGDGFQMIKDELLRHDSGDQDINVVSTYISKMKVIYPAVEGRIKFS
Experiment: ELISA, plate coated with 1 μg/mL recombinant human CD73, anti-human IgG-HRP detection

亲和力 (affinity): 8.3e-13 mol/L
B1: 抗CD73人源化单克隆抗体5A4 (antibody, part only; not given: Light chain variable region, part only)
VH: SICFEGKPDMNQRDKEDHMRVFMNSWDDWYDVKLWHCIDFERAHRPQHYPIMAQVQLVQSGAEVKKPGASVKVSCKASGYSFTDYNMYWVRQAPGQGLEWMGYIDPYNGDASYAQKFQGRVTMTRDTSTSTVYMELSSLRSEDTAVYYCAKTDYWGQGTTLTVSSCLAKLPCGSHTWVWWQEMIQNAPWCVQPTHDHWAPAGWNHGCCILAHAENIQGAQWFAY
